Experimental data from patent US20250179196A1 (Janssen / Centocor, published 2025).
Where a chain is given by its changes, count along the chain named.

T1: human IL-23R expressed on the cell surface of stably transfected iLite and HEK cell lines (human, UniProt Q5VWK5 24-629)
T1 construct: whole, on cells; Same receptor on two transfected cell lines; the cell line is named under assay; also called human IL-23R iLite cells; human IL-23R HEK cells
T1 sequence (looked up): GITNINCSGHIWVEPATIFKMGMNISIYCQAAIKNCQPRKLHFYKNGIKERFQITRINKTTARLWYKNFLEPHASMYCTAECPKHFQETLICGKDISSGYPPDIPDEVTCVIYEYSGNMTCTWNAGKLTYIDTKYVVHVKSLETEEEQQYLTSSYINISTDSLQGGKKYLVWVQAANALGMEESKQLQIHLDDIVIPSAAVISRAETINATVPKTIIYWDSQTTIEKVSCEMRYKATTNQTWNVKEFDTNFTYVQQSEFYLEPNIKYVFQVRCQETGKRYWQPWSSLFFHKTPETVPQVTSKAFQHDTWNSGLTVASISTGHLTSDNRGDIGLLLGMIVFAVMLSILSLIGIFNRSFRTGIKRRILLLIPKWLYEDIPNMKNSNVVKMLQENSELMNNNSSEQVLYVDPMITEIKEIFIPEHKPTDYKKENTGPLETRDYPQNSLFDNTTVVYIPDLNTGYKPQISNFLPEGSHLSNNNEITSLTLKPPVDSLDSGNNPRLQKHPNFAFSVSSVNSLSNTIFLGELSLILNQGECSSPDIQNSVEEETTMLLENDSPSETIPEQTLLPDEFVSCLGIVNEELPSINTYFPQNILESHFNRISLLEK

T2: rat IL-23R extracellular domain (ECD) protein (rat)
T2 construct: also called rat IL-23R ECD; F1LX96 amino acids 24-354
T2 chain: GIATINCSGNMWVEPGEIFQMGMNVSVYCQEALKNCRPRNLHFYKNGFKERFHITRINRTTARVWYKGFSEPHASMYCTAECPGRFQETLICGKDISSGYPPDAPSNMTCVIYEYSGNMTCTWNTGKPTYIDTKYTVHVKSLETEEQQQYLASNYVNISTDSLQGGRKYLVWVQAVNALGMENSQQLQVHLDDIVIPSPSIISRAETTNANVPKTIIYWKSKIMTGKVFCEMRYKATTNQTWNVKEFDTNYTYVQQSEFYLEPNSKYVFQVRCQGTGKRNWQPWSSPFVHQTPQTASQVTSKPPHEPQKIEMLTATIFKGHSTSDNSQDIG

T3: Recombinant human IL-23 receptor (IL-23R) extracellular domain (ECD) protein (human, UniProt Q5VWK5 24-355)
T3 construct: also called human IL-23R ECD; hu IL-23R ECD
T3 sequence: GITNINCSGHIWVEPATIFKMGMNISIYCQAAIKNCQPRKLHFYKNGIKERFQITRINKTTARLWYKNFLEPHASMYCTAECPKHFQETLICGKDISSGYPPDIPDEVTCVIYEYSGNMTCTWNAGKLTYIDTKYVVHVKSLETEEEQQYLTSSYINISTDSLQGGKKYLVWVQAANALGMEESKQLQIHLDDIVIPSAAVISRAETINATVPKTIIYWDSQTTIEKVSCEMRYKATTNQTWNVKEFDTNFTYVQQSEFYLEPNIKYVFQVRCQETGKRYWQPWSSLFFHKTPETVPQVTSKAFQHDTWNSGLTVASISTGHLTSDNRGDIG

B1: I23RB155 (antibody, mouse IgG2a, kappa, V domains shown)
VH: QVQLKESGPGLVKPSQSLSLTCSVTGYSITSGHSWNWIRQFPGNKLEWMGYISYDGTNDYNPSLKNRISITRDTSKNQFFLNLNSVTTEDTVTYYCARGGGYYGGTYRVFADWGQGTTLTVSS
VL: QIVLSQSPASLAVSLGQRATISCRTSESVDTYGNSFIYWYQQKPGQPPKLLIYRASNLESGIPARFSGSGSRTDFTLTINPVEADDVATYYCQQGNKDPYTFGSGTKLEMKR
notes: immunization; mouse IgG2a/kappa
B2: I23RB148 (antibody, mouse IgG2a, kappa, V domains shown)
VH: DVQLQESGPDLVKPSQSLSLTCTVTGYSITSGYNWHWIRQFPGNKLEWMGYIHSSGTTNYSPSLRSRLSITRDTSKNQFFLQLNSVTTEDTATYYCTRQLGLKAMEYWGQGTTLTVSS
VL: DIVMTQSHKFMSTSVGDRVSLTCKASQEVRTAVAWYQQKPGQPPKLLIYSASYRYTGVPDRFTGSGSGTDFTFTIISVQAEDLAVYYCQQHYTTPYSFGSGTKLEIKR
notes: as for B1
B3: I23RB144 (antibody, mouse IgG2a, kappa, V domains shown)
VH: EVQLQQSGPELVKPGASVKMSCKASGYTFTSYIIHWVKQKPGQGLEWIGYIDPYNDDTKYNEKFKGKATLTSDKSSSTAYMEFSSLTSEDSAVYYCARLGSINYYDGSYFDYWGQGTSVTVSS
VL: DIVMTQSPLTLSVIIGQSASISCKSSQSLLDSDGKTYLNWLLQRPGQSPKRLMYLVSKLDSGVPDRFTGSGSGTDFTLKISRVEAEDLGVYYCWQGIHFPLTFGSGTRLEIKR
notes: as for B1
B4: I23RB150 (antibody, mouse IgG2a, kappa, V domains shown)
VH: QIQLVQSGPELKKPGETVKISCKASAYTFTNYGMNWVKQAPGKGLKWMGWIKTNTGEPTYAEEFKGRFAFSLETSASTAYLQINNLKNEDTATYFCARSRQLGLRYYFDYWGQGTTLTVSS
VL: DIVMTQSHKFMSTSVGGRVSITCKASQDVSTAVAWYQQKPGQSPRLLIYSASYRYTGVPDRFTGSGSGTDFTFTISSVQAEDLAVFYCQQHYSTPYTFGSGTRLEIKR
notes: as for B1
B5: I23RB80 (antibody, mouse IgG2a, kappa, V domains shown)
VH: DVQLQESGPGLVQPSQSLSITCTVSGFSLTSYGVHWVRQSPGKGLEWLGVIWSGVSTDYNAAFISRLSISKDNSKSQVFFKMNSLQADDTAIYYCARSRGSYYFDYWGQGTTLTVSS
VL: DIVMTQSQKFMSTSEGDRVNITCKASQNIRTAVAWYQQKPGQSPKPLIYLASNRHTGVPDRFTGSGSGTDFTLTISNVQSEDLAEYFCLQHWNYPLTFGAGTKLELKR
notes: mouse immunization; mouse IgG2a/kappa
B6: I23RB78 (antibody, mouse IgG2a, kappa, V domains shown)
VH: EFQLQQSGGGLVKPGGSLKLSCAASGFTFSNYTMSWVRQTPEKRLKWVACISSGGGNTYYPDSVKGRFTISRDNARNTLYLQMSSLRSEDTAMYYCARRNYRRAMDYWGQGTSVTVSS
VL: DIVMTQSPASLAVSLGQRATISCRASESVDSYGISFMHWYQQKPGQPPKLLIYRASNLESGIPARFSGSGSRTDFTLTINPVEADDVATYYCQQSNEDPWTFGAGTGLEIKR
notes: as for B5
B7: I23RB87 (antibody, mouse IgG2a, kappa, V domains shown)
VH: EFQLQQSGPELVKPGTSVKMSCKASGYTFTNYVMHWVKQKPGQGLEWIGYINPYDASPKYNEKFKGKAILTSDKSSSTAYMELSSLTSEDSAVYYCTRDAKLDYFDYWGQGTTLTVSS
VL: DIVMTQTTSSLSASLGDRVTISCRASQDISNYLNWYQQKPDGTVKLLIYYTSRLHSGVPSRFSGSGSGTDFSLTISNLEQEDIATYFCQQGITLPWTFGAGTKLELKR
notes: as for B5
B8: I23RB74 (antibody, mouse IgG2a, kappa, V domains shown)
VH: DVQLQESGPGLVKPSQSLSLTCSVTGYSITSGYYWNWIRQFPGNKLEWMGYISYDGSFNYNPSLKNRLSITRDTSMNQFFLKLNSVTSEDTATYYCARAEIYYDYDGDFDYWGQGTTLTVSS
VL: DIVLTQSPASLAVSLGQRATISCRASKSVSTSGSNFLHWYQQKPGQPPKLLIYFASNLESGVPARFSGSGSGTDFTLNIHPVEEEDAATYYCQHSRELPHTFGAGTKLELKR
notes: as for B5
B9: I23RB102 (antibody, mouse IgG2a, kappa, V domains shown)
VH: QVQLQQPGAELVKPGASVKVSCKASGYTFTKYWINWMNQRPGQGLEWIGNIYPGSISTNYNEKFKSKVTLTVDISSSTAYMQLSSLTSDDSAVYYCARGDFYALDYWGQGTTLTVSS
VL: DIQMTQSPASLSVSVGETVTITCRASENIYSHITWYQLKQGKSPQLLVYASTNLADDVPSRFSGSGSGTQYSLKINSLLSEDFGTYYCQHFWGTPWTFGGGTKLEMKR
notes: as for B5
B10: I23RB5 (antibody, mouse IgG2a, kappa, V domains shown)
VH: QVQLVQSGAEVKKPGSSVKVSCKASGGTFSSYAISWVRQAPGQGLEWMGGIIPIFGTANYAQKFQGRVTITADESTSTAYMELSSLRSEDTAVYYCARDSYYSTVTYYYFDYWGQGTLVTVSS
VL: not shown
notes: phage display; human V regions, mouse IgG2a/kappa constant regions; also called negative control mAb
B11: I23RB81 (antibody, mouse IgG2a, kappa, V domains shown)
VH: DVQLQESGPGLVAPSQSLSITCTVSGFSLTSYAINWVRQPPGKGLEWLGVIWTGGGTNYNSALKSRLSISKDNSKSQLFLKMNSLQTDDTARYYCARNRDYSNYRWYFDVWGAGTSVTVSS
VL: B4 VL with G17D, T22I, R45K, F86Y, Y96L, S100A
notes: as for B5
B12: I23RB67 (antibody, mouse IgG2a, kappa, V domains shown)
VH: EVQLQQSGAELVKPGASVKLSCKASGYTFTSYWINWVKQRPGQGLEWIGNIYPGSSSTNYNEKFKSKATLTVDTSSSTAYMQLSSLTSDDSAVYYCARSAYGNRLAMDYWGQGTTLTVSS
VL: B4 VL with I2V, G17D, R45K, S52F, F86Y, S100G, R103K, I106L
notes: as for B5

What follows are binders tested against T1, human IL-23R expressed on the cell … (assay: flow cytometry on human IL-23R HEK cells, Expt E (11-point, 384well)).
Summary of the method: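 Antibody bound to HEK-IL-23R cells 30 min at 37 °C over 11 concentrations; after washes, Sytox Green added and cells run on iQue. Geometric MFI of 647 detection antibody on single viable cells fitted by variable-slope dose–response.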

Binder	EC50 [nM]	MFI (6.4 nM) [MFI]
B1	10.1	177000
B2	6	203000
B3	> 50	46200
B4	16.2	103000

Molecular target: T2, rat IL-23R extracellular domain (ECD) …
Assay: SPR Biacore 8K, supernatant
Description: (§1) Affinity by SPR using Biacore 8K. Affinity measurements using Surface Plasmon Resonance (SPR) were performed using a Biacore 8K system (Cytiva). […] Approximately 9000-10000 RU (response units) of mAbs were immobilized. The kinetic experiments were performed at 25° C. in running buffer 1× of (HBS-P+ Buffer 10× (Cytiva #BR100671)+100 μg/ml BSA). To perform kinetic experiments, approximately 150 RU of mAbs were captured followed by injections of human IL-23R or rat IL-23R at concentrations ranging from 0.8 nM to 500 nM (in a 5-fold serial dilution). The association phase was monitored for 3 minutes at 50 μL/min, then followed by 30 minutes of buffer flow (dissociation phase). […] The collected data were processed using Biacore insight Evaluation software (Version 3.0.12.15655). The kinetic analysis of the data was performed using a Langmuir 1:1 binding model. The result for each mAb was reported in the format of Ka (On-rate), Kd (Off-rate) and KD (equilibrium dissociation constant).

Binder	binding result
B5	no binding (tested: 500 nM)
B6	no binding (tested: 500 nM)
B7	no binding (tested: 500 nM)
B8	no binding (tested: 500 nM)
B9	no binding (tested: 500 nM)
B10	no binding (tested: 500 nM)
B11	no binding (tested: 500 nM)
B12	no binding (tested: 500 nM)

These binders were tested against T3, Recombinant human IL-23 receptor … (assay: SPR Biacore 8K, supernatant, analysis 2).
Description: as §1

Binder	Kd [nM]	koff [s⁻¹]	kon [M⁻¹ s⁻¹]
B6	4.33	0.000774	179000
B7	10.9	0.000945	86500
B8	2.33	0.00222	954000
B9	18.5	0.00873	471000
B11	8.89	0.00173	195000
B12	25.4	0.0172	677000

What follows are binders tested against T1, human IL-23R expressed on the cell … (assay: flow cytometry on human IL-23R HEK cells, Expt D (8-point, 96well)).
Summary of the method: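 Serially diluted IL-23R mAbs bound to mixed HEK-IL-23R and parental HEK cells for 30 min at 37 °C, in duplicate. After washes, 647 detection antibody geometric MFI measured on single viable (Sytox Green-negative) cells and fitted to a variable-slope dose-response against log mAb concentration.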

Binder	EC50 [nM]
B1	0.9
B2	0.3
B3	13.4
B4	0.8
